Measurements reported in article PMC12609441, “Comparative Preclinical Evaluation of the Tumor-Targeting Properties of Radioiodine and Technetium-Labeled Designed Ankyrin Repeat Proteins for Imaging of Epidermal Growth Factor Receptor Expression in Malignant Tumors” (International Journal of Molecular Sciences, 2025).

Molecular target: T1, epidermal growth factor receptor (EGFR) (human (endogenous in A-431, DU-145, …, UniProt P00533 25-1210))
T1 construct: also called ErbB1; HER1
Assay: radioligand binding; saturation assay on living A-431 cells; eight concentrations of radiolabeled protein 0.22 to 40 nM, 4 h at 4 °C; nonspecific binding with 50-fold molar excess of unlabeled (HE)3-E01; nonlinear regression
Settings: one partner purified

B1: [^99mTc]Tc-(HE)3-E01 (designed binder)
chain: MRGSHEHEHEGSDLGKKLLEAARAGQDDEVRILMANGADVNADDTWGWTPLHLAAYQGHLEIVEVLLKNGADVNAYDYIGWTPLHLAADGHLEIVEVLLKNGADVNASDYIGDTPLHLAAHNGHLEIVEVLLKHGADVNAQDKFGKTAFDISIDNGNEDLAEILQKLN
modifications: [^99mTc]Tc(CO)3^+ with the (HE)3 tag as a chelator at the N-terminus
notes: DARPin E01 with the N-terminal (HE)3 tag; also called DARPin (HE)3-E01 labeled with [^99mTc]Tc(CO)3; technetium-labeled variant; source: E. coli, purified; labeled with [^99mTc]Tc(CO)3, isolated on NAP-5 size-exclusion column; not shown: (HE)3, N-terminal, kept
Kd: 4.9 ± 0.5 nM

B2: [^123I]I-(HE)3-E01-PIB (designed binder)
chain: B1 chain
modifications: [^123I]I-para-iodobenzoate (PIB) conjugated to the N-terminal or one of eight lysine amino groups (site-unspecific)
notes: DARPin E01 with the N-terminal (HE)3 tag; source: E. coli, purified; not shown: (HE)3, N-terminal, kept
Kd: 2.5 ± 0.5 nM
